The target of the series is microtubule (in vitro reconstituted, taxol-stabilised).

B1: HA-tagged wild-type p68 (HA-p68), immunopurified from SW480 cell lysates (protein)
chain: MSGYSSDRDRGRDRGFGAPRFGGSRAGPLSGKKFGNPGEKLVKKKWNLDELPKFEKNFYQEHPDLARRTAQEVETYRRSKEITVRGHNCPKPVLNFYEANFPANVMDVIARQNFTEPTAIQAQGWPVALSGLDMVGVAQTGSGKTLSYLLPAIVHINHQPFLERGDGPICLVLAPTRELAQQVQQVAAEYCRACRLKSTCIYGGAPKGPQIRDLERGVEICIATPGRLIDFLECGKTNLRRTTYLVLDEADRMLDMGFEPQIRKIVDQIRPDRQTLMWSATWPKEVRQLAEDFLKDYIHINIGALELSANHNILQIVDVCHDVEKDEKLIRLMEEIMSEKENKTIVFVETKRRCDELTRKMRRDGWPAMGIHGDKSQQERDWVLNEFKHGKAPILIATDVASRGLDVEDVKFVINYDYPNSSEDYIHRIGRTARSTKTGTAYTFFTPNNIKQVSDLISVLREANQAINPKLLQLVEDRGSGRSRGRGGMKDDRRDRYSAGKRGGFNTFRDRENYDRGYSSLLKRDFGAKTQNGVYSAANYTNGSFGSNFVSAGIQTSFRTGNPTGTYQNGYDSTQQYGSNVPNMHNGMNQQAYAYPATAAAPMIGYPMPTGYSQ
Regarding B1, the % of gliding microtubules (n = 50), p68/Ca^2+-CaM, ATP was determined as 74.2%; the % of gliding microtubules (n = 50), p68/Ca^2+-CaM, no ATP came out at 5.79%; the “ATPase activity (inorganic phosphate hydrolyzed from ATP)” value is “the protein demonstrated an even stronger microtubule stimulated ATPase activity”; the Maximum gliding speed, p68/Ca^2+-CaM, ATP stood at 0.52 µm/min. This protein also registered a Maximum gliding speed, p68/Ca^2+-CaM, no ATP of 0.01 µm/min; a Mean gliding speed, p68/Ca^2+-CaM, ATP of 0.16 µm/min; a Mean gliding speed, p68/Ca^2+-CaM, no ATP of 0 µm/min.

Source of the values: patent US11214624.
